# Experimental data taken from paper PMC9482650, “Quantitative fragmentomics allow affinity mapping of interactomes” (Nature Communications, 2022).
# T1: APBA1_1, Q02410
# T1 sequence (Q02410 651-752, limits assumed, looked up): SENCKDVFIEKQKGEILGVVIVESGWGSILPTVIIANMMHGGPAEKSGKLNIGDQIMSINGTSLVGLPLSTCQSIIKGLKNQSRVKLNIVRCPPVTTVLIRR
# T2: APBA1_2, Q02410
# T2 sequence (Q02410 742-832, limits assumed, looked up): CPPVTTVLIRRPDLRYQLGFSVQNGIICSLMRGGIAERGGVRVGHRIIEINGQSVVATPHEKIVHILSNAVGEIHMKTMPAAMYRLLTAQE
# T3: CARD11, Q9BXL7
# T3 sequence (Q9BXL7 662-765, limits assumed, looked up): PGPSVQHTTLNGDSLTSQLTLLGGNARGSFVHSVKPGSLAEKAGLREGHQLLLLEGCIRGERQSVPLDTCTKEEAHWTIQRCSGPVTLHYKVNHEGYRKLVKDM
# T4: DLG3_2, Q92796
# T4 sequence (Q92796 221-321, limits assumed, looked up): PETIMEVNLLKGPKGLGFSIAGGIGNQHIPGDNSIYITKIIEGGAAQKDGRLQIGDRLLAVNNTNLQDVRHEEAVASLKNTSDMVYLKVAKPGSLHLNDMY
# T5: DVL3, Q92997
# T5 sequence (Q92997 244-331, limits assumed, looked up): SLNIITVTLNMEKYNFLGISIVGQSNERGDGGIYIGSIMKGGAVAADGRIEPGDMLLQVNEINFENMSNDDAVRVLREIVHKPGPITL
# T6: FRMPD1, Q5SYB0
# T6 sequence (Q5SYB0 52-145, limits assumed, looked up): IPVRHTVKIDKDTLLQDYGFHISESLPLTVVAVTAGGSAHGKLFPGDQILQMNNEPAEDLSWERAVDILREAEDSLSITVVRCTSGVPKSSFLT
# T7: GRIP1_5, Q9Y3R0
# T7 sequence (Q9Y3R0 568-668, limits assumed, looked up): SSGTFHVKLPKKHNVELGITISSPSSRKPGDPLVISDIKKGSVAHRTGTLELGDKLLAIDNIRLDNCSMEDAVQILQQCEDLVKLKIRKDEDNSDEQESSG
# T8: LIN7B, Q9HAP6
# T8 sequence (Q9HAP6 88-185, limits assumed, looked up): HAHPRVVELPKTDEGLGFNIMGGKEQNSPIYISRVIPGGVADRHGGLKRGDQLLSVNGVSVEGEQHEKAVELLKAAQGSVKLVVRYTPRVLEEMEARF
# T9: MPDZ_12, O75970
# T9 sequence (O75970 1857-1958, limits assumed, looked up): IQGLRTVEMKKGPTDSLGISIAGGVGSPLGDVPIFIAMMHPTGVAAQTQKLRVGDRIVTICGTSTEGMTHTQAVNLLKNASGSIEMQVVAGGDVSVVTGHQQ
# T10: PDZD2_2, O15018
# T10 sequence (O15018 329-429, limits assumed, looked up): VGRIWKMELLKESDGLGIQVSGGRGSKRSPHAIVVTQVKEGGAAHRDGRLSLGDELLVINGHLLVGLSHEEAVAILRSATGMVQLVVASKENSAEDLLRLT
# T11: SNTA1, Q13424
# T11 sequence (Q13424 82-180, limits assumed, looked up): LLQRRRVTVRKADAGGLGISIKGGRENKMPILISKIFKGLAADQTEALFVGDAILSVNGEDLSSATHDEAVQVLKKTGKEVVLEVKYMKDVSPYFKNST
# Assays:
# Assay in all cases: holdup assay
# Set-up in all cases: key: below the threshold = too weak to quantify, mostly under pKd 3.1 to 4
# APBA1_1, Q02410 = molecular target: T1, APBA1_1, Q02410
# APBA1_2, Q02410 = molecular target: T2, APBA1_2, Q02410
# CARD11, Q9BXL7 = molecular target: T3, CARD11, Q9BXL7
# DLG1_2, Q12959 = molecular target: DLG1_2, Q12959
# DLG3_2, Q92796 = molecular target: T4, DLG3_2, Q92796
# DLG4_2, P78352 = molecular target: DLG4_2, P78352
# DLG5_1, Q8TDM6 = molecular target: DLG5_1, Q8TDM6
# DVL3, Q92997 = molecular target: T5, DVL3, Q92997
# FRMPD1, Q5SYB0 = molecular target: T6, FRMPD1, Q5SYB0
# FRMPD2_1, Q68DX3 = molecular target: FRMPD2_1, Q68DX3
# FRMPD2_2, Q68DX3 = molecular target: FRMPD2_2, Q68DX3
# GIPC2, Q8TF65 = molecular target: GIPC2, Q8TF65
# GOPC, Q9HD26 = molecular target: GOPC, Q9HD26
# GRIP1_5, Q9Y3R0 = molecular target: T7, GRIP1_5, Q9Y3R0
# IL16_4, Q14005 = molecular target: IL16_4, Q14005
# Inadl_4, Q8NI35 = molecular target: Inadl_4, Q8NI35
# Inadl_9, Q8NI35 = molecular target: Inadl_9, Q8NI35
# LIN7B, Q9HAP6 = molecular target: T8, LIN7B, Q9HAP6
# LNX1_2, Q8TBB1 = molecular target: LNX1_2, Q8TBB1
# MAGI2_3, Q86UL8 = molecular target: MAGI2_3, Q86UL8
# MAGI2_5, Q86UL8 = molecular target: MAGI2_5, Q86UL8
# MPDZ_12, O75970 = molecular target: T9, MPDZ_12, O75970
# NHERF4_4, Q86UT5 = molecular target: NHERF4_4, Q86UT5
# PDZD2_2, O15018 = molecular target: T10, PDZD2_2, O15018
# SCRIB_1, Q14160 = molecular target: SCRIB_1, Q14160
# SCRIB_3, Q14160 = molecular target: SCRIB_3, Q14160
# SNTA1, Q13424 = molecular target: T11, SNTA1, Q13424
# [1] = plain residues with an end cap or a label only (N-terminal biotin on a linker: ttds)
# [2] = plain residues with an end cap or a label only (N-terminal biotin on a linker: ahx)
# Sequence of MAGI2_3, Q86UL8 (Q86UL8 600-682): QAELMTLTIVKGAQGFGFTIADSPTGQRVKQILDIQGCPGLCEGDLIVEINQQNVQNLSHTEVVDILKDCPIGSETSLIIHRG
# Sequence of FRMPD2_1, Q68DX3 (Q68DX3 770-861): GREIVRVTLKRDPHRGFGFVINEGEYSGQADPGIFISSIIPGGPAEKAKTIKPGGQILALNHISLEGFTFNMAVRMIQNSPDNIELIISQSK
# Sequence of DLG1_2, Q12959 (Q12959 314-412): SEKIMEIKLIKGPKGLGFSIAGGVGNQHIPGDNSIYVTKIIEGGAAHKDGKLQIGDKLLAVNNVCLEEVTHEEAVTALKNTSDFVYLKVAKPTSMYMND
# Sequence of FRMPD2_2, Q68DX3 (Q68DX3 944-1038): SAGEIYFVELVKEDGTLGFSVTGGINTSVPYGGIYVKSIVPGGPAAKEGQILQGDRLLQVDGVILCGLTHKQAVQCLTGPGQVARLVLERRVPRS
# Sequence of NHERF4_4, Q86UT5 (Q86UT5 464-550): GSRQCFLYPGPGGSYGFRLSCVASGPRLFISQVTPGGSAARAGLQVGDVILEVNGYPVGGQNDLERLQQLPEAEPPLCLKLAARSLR
# Sequence of Inadl_9, Q8NI35 (Q8NI35 1530-1615): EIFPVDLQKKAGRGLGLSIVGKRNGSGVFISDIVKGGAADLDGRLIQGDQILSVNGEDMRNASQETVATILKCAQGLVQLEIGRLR
# Sequence of DLG4_2, P78352 (P78352 155-259): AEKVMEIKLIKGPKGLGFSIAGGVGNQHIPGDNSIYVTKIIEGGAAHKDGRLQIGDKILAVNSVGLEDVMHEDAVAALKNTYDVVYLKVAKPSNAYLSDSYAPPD
# Sequence of GIPC2, Q8TF65 (Q8TF65 112-203): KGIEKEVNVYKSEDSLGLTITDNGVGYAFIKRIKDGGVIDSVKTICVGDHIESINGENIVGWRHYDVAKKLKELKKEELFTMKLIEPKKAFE
# Sequence of Inadl_4, Q8NI35 (Q8NI35 547-651): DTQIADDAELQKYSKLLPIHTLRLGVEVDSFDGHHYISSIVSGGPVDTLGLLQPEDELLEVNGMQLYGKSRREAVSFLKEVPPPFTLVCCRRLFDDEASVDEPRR
# Sequence of IL16_4, Q14005 (Q14005 1229-1329): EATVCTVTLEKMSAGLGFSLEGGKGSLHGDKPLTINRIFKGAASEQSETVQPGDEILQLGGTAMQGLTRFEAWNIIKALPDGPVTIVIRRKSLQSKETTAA
# Sequence of LNX1_2, Q8TBB1 (Q8TBB1 371-470): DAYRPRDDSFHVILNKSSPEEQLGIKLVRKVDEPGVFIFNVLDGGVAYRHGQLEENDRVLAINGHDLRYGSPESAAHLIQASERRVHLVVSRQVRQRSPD
# Sequence of MAGI2_5, Q86UL8 (Q86UL8 915-1017): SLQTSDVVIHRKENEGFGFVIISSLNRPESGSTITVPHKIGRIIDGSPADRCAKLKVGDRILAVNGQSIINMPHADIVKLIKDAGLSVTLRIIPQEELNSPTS
# Sequence of SCRIB_1, Q14160 (Q14160 718-814): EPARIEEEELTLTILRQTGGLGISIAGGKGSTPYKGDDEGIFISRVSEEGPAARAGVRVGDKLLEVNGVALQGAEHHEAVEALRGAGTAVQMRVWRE
# Sequence of DLG5_1, Q8TDM6 (Q8TDM6 617-713): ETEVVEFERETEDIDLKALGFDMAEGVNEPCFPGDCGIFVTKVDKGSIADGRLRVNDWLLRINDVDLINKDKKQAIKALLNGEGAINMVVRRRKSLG
# Sequence of SCRIB_3, Q14160 (Q14160 999-1103): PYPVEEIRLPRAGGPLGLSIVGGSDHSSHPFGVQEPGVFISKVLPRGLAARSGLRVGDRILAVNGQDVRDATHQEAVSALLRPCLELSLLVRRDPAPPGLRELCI
binder,measurement,setting,value
"GQDSREETQL [KCNT2, Q6UVM3]",pKd,"APBA1_1, Q02410; [1]",below the threshold
same,pKd,"APBA1_2, Q02410; [1]",3.79
same,pKd,"CARD11, Q9BXL7; [1]",below the threshold
same,pKd,"DLG1_2, Q12959; [1]",4.2
same,pKd,"DLG3_2, Q92796; [1]",4
same,pKd,"DLG4_2, P78352; [1]",3.62
same,pKd,"DLG5_1, Q8TDM6; [1]",below the threshold
same,pKd,"DVL3, Q92997; [1]",below the threshold
same,pKd,"FRMPD1, Q5SYB0; [1]",below the threshold
same,pKd,"FRMPD2_1, Q68DX3; [1]",below the threshold
same,pKd,"FRMPD2_2, Q68DX3; [1]",below the threshold
same,pKd,"GIPC2, Q8TF65; [1]",3.79
same,pKd,"GOPC, Q9HD26; [1]",4.01
same,pKd,"GRIP1_5, Q9Y3R0; [1]",below the threshold
same,pKd,"IL16_4, Q14005; [1]",below the threshold
same,pKd,"Inadl_4, Q8NI35; [1]",below the threshold
same,pKd,"Inadl_9, Q8NI35; [1]",below the threshold
same,pKd,"LIN7B, Q9HAP6; [1]",3.66
same,pKd,"LNX1_2, Q8TBB1; [1]",below the threshold
same,pKd,"MAGI2_3, Q86UL8; [1]",below the threshold
same,pKd,"MAGI2_5, Q86UL8; [1]",4.37
same,pKd,"MPDZ_12, O75970; [1]",below the threshold
same,pKd,"NHERF4_4, Q86UT5; [1]",below the threshold
same,pKd,"PDZD2_2, O15018; [1]",below the threshold
same,pKd,"SCRIB_1, Q14160; [1]",4.57
same,pKd,"SCRIB_3, Q14160; [1]",5.07
same,pKd,"SNTA1, Q13424; [1]",4.06
"QSARYRDTEL [TJP2, Q9UDY2]",pKd,"APBA1_1, Q02410; [1]",below the threshold
same,pKd,"APBA1_2, Q02410; [1]",below the threshold
same,pKd,"CARD11, Q9BXL7; [1]",below the threshold
same,pKd,"DLG1_2, Q12959; [1]",3.77
same,pKd,"DLG3_2, Q92796; [1]",below the threshold
same,pKd,"DLG4_2, P78352; [1]",3.83
same,pKd,"DLG5_1, Q8TDM6; [1]",below the threshold
same,pKd,"DVL3, Q92997; [1]",below the threshold
same,pKd,"FRMPD1, Q5SYB0; [1]",below the threshold
same,pKd,"FRMPD2_1, Q68DX3; [1]",below the threshold
same,pKd,"FRMPD2_2, Q68DX3; [1]",below the threshold
same,pKd,"GIPC2, Q8TF65; [1]",below the threshold
same,pKd,"GOPC, Q9HD26; [1]",below the threshold
same,pKd,"GRIP1_5, Q9Y3R0; [1]",below the threshold
same,pKd,"IL16_4, Q14005; [1]",below the threshold
same,pKd,"Inadl_4, Q8NI35; [1]",below the threshold
same,pKd,"Inadl_9, Q8NI35; [1]",below the threshold
same,pKd,"LIN7B, Q9HAP6; [1]",below the threshold
same,pKd,"LNX1_2, Q8TBB1; [1]",3.52
same,pKd,"MAGI2_3, Q86UL8; [1]",below the threshold
same,pKd,"MAGI2_5, Q86UL8; [1]",3.48
same,pKd,"MPDZ_12, O75970; [1]",below the threshold
same,pKd,"NHERF4_4, Q86UT5; [1]",3.47
same,pKd,"PDZD2_2, O15018; [1]",below the threshold
same,pKd,"SCRIB_1, Q14160; [1]",4.46
same,pKd,"SCRIB_3, Q14160; [1]",4.65
same,pKd,"SNTA1, Q13424; [1]",4.38
"IDNDTESTAL [ARHGAP17, Q68EM7]",pKd,"APBA1_1, Q02410; [1]",below the threshold
same,pKd,"APBA1_2, Q02410; [1]",3.89
same,pKd,"CARD11, Q9BXL7; [1]",below the threshold
same,pKd,"DLG1_2, Q12959; [1]",below the threshold
same,pKd,"DLG3_2, Q92796; [1]",below the threshold
same,pKd,"DLG4_2, P78352; [1]",below the threshold
same,pKd,"DLG5_1, Q8TDM6; [1]",below the threshold
same,pKd,"DVL3, Q92997; [1]",below the threshold
same,pKd,"FRMPD1, Q5SYB0; [1]",below the threshold
same,pKd,"FRMPD2_1, Q68DX3; [1]",below the threshold
same,pKd,"FRMPD2_2, Q68DX3; [1]",below the threshold
same,pKd,"GIPC2, Q8TF65; [1]",below the threshold
same,pKd,"GOPC, Q9HD26; [1]",3.86
same,pKd,"GRIP1_5, Q9Y3R0; [1]",below the threshold
same,pKd,"IL16_4, Q14005; [1]",below the threshold
same,pKd,"Inadl_4, Q8NI35; [1]",below the threshold
same,pKd,"Inadl_9, Q8NI35; [1]",below the threshold
same,pKd,"LIN7B, Q9HAP6; [1]",below the threshold
same,pKd,"LNX1_2, Q8TBB1; [1]",below the threshold
same,pKd,"MAGI2_3, Q86UL8; [1]",below the threshold
same,pKd,"MAGI2_5, Q86UL8; [1]",4.47
same,pKd,"MPDZ_12, O75970; [1]",below the threshold
same,pKd,"NHERF4_4, Q86UT5; [1]",below the threshold
same,pKd,"PDZD2_2, O15018; [1]",4.11
same,pKd,"SCRIB_1, Q14160; [1]",4.91
same,pKd,"SCRIB_3, Q14160; [1]",4.57
same,pKd,"SNTA1, Q13424; [1]",3.73
"TEAKLTETNA [MYO18A, Q92614]",pKd,"APBA1_1, Q02410; [2]",below the threshold
same,pKd,"APBA1_2, Q02410; [2]",below the threshold
same,pKd,"CARD11, Q9BXL7; [2]",below the threshold
same,pKd,"DLG1_2, Q12959; [2]",below the threshold
same,pKd,"DLG3_2, Q92796; [2]",below the threshold
same,pKd,"DLG4_2, P78352; [2]",below the threshold
same,pKd,"DLG5_1, Q8TDM6; [2]",below the threshold
same,pKd,"DVL3, Q92997; [2]",below the threshold
same,pKd,"FRMPD1, Q5SYB0; [2]",below the threshold
same,pKd,"FRMPD2_1, Q68DX3; [2]",below the threshold
same,pKd,"FRMPD2_2, Q68DX3; [2]",below the threshold
same,pKd,"GIPC2, Q8TF65; [2]",below the threshold
same,pKd,"GOPC, Q9HD26; [2]",below the threshold
same,pKd,"GRIP1_5, Q9Y3R0; [2]",below the threshold
same,pKd,"IL16_4, Q14005; [2]",below the threshold
same,pKd,"Inadl_4, Q8NI35; [2]",below the threshold
same,pKd,"Inadl_9, Q8NI35; [2]",below the threshold
same,pKd,"LIN7B, Q9HAP6; [2]",below the threshold
same,pKd,"LNX1_2, Q8TBB1; [2]",below the threshold
same,pKd,"MAGI2_3, Q86UL8; [2]",below the threshold
same,pKd,"MAGI2_5, Q86UL8; [2]",below the threshold
same,pKd,"MPDZ_12, O75970; [2]",below the threshold
same,pKd,"NHERF4_4, Q86UT5; [2]",below the threshold
same,pKd,"PDZD2_2, O15018; [2]",below the threshold
same,pKd,"SCRIB_1, Q14160; [2]",below the threshold
same,pKd,"SCRIB_3, Q14160; [2]",below the threshold
same,pKd,"SNTA1, Q13424; [2]",below the threshold
